In one assay the target is T1, human PSMA (human, UniProt Q04609 1-750).
T1 construct: whole, on cells; On LNCaP cells highly expressing human PSMA (Nanjing Cobioer, CBP60364); also called FOLH1; glutamate carboxypeptidase 2
Description: flow cytometry, LNCaP cells highly expressing human PSMA. A general note: In flow cytometry, cells or beads pass a laser one at a time.

In another assay the target is T2, human OX40 (human, UniProt P43489 29-277).
T2 construct: whole, on cells; Expressed on CHO-K1/hu OX40 cells (GenScript, #M00561); also called CD134; TNFRSF4
T2 sequence (looked up): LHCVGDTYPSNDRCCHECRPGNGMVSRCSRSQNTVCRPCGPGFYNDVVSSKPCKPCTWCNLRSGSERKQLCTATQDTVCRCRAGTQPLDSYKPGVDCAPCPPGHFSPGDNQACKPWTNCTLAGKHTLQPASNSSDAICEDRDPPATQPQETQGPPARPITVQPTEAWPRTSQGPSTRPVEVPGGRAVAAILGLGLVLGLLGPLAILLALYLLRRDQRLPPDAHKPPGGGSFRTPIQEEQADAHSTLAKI
Description: flow cytometry, CHO-K1/hu OX40 cells.

In the next assay the target is T3, human PD-L1 (human, UniProt Q9NZQ7 19-290).
T3 construct: whole, on cells; Expressed on CHO-K1/hPD-L1 cells (GenScript, M00543); also called CD274; B7-H1
T3 sequence (Q9NZQ7 19-290): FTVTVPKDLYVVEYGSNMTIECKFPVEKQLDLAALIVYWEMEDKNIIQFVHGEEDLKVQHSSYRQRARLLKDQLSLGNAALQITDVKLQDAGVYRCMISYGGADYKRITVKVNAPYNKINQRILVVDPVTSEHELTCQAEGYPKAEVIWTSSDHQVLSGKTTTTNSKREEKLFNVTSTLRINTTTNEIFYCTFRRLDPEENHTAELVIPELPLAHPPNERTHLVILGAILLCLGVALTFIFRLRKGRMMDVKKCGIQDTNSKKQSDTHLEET
The experiment in a line: flow cytometry, CHO-K1/hPD-L1 cells.

A further assay concerns the target T4, human 4-1BB (human, UniProt Q07011 24-255).
T4 construct: whole, on cells; Expressed on CHO-K1/hu 4-1BB cells (GenScript, M00538); also called CD137; TNFRSF9
Description: flow cytometry, CHO-K1/hu 4-1BB cells.

A further assay addresses T5, human CLDN18.2 (human).
T5 construct: On NUGC-4 cells highly expressing human CLDN18.2 (JCRB, JCRB0834); also called Claudin 18.2; NUGC-4 cells
The experiment in a line: flow cytometry, NUGC-4 cells highly expressing human CLDN18.2.

Data on eight molecules can be found in US20230303698A1 (HARBOUR BIOMED SHANGHAI, published 2023).

T1 sequence (Q04609 whole entry): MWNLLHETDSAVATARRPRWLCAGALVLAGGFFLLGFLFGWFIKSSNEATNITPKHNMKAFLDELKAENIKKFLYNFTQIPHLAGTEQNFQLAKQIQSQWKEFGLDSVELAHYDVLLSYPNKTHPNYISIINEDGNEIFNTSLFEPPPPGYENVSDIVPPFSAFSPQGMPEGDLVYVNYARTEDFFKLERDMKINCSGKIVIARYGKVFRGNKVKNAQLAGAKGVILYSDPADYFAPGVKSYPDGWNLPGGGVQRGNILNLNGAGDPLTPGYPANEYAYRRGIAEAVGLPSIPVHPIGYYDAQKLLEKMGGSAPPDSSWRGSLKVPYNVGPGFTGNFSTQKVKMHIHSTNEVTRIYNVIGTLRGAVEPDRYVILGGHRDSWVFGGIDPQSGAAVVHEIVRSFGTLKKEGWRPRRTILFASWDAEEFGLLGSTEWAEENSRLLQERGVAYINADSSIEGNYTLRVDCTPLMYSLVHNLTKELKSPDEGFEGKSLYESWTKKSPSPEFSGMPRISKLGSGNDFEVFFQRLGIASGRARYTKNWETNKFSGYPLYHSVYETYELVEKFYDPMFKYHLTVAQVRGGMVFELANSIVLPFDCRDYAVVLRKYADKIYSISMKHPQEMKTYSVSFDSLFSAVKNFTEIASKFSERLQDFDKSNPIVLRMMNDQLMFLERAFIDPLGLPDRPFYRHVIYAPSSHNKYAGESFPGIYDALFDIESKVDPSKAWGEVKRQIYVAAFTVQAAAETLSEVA
T4 sequence (Q07011 24-255): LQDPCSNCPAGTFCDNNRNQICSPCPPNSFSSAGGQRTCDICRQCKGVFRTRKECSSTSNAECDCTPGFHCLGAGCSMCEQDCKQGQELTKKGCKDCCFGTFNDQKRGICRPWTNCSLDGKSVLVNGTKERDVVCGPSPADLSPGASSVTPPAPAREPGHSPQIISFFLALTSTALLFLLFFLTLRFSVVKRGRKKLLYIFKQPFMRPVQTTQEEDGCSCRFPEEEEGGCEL
Description for human 4-1BB: The binding ability of the binding protein to a CHO-K1 cell line CHO-K1/hu 4-1BB (GenScript, M00538) highly expressing human 4-1BB and a CHO-K1 cell line CHO-K1/cyno 4-1BB (GenScript, M00569) highly expressing cynomolgus monkey 4-1BB were determined by flow cytometry FACS. Specifically, the cells were digested and resuspended in a complete medium, and the cell density was adjusted to 2×10⁶ cells/mL. […] The cells were incubated at 4° C. for 1 h away from light. Then, the cells in each well were rinsed twice with 100 μL of pre-cooled FACS buffer (PBS buffer containing 0.5% BSA) and centrifuged at 500 g at 4° C. for 5 min, and then the supernatant was discarded. […] Then, the cells in each well were then rinsed twice with 200 μL of pre-cooled FACS buffer and centrifuged at 500 g at 4° C. for 5 min, and then the supernatant was discarded. Finally, a pre-cooled FACS buffer was added at 200 μL/well to resuspend the cells. Fluorescence signal values were read using a BD FACS CANTOII flow cytometer or an ACEA NovoCyte flow cytometer, and the data were processed and analyzed using FlowJo v10 (FlowJo, LLC) software.
Description for human CLDN18.2: In this example, the binding ability of the binding proteins to cells highly expressing specific tumor antigens was determined by flow cytometry FACS. Briefly, a cell suspension was collected, and the cell density was adjusted to 2×10⁶ cells/mL. […] Then, binding proteins diluted in a 3-fold gradient at a total of 8 concentrations that were 2 times the final concentrations were added at 50 μL/well, and the mixture was mixed well. hIgG1 iso (CrownBio, #C0001) was used as an isotype control. The cells were incubated at 4° C. for 2 h away from light. Then, the cells in each well were then rinsed twice with 100 μL of pre-cooled PBS buffer and centrifuged at 500 g at 4° C. for 5 min, and then the supernatant was discarded. […] Then, the cells in each well were then rinsed twice with 100 μL of pre-cooled PBS buffer and centrifuged at 500 g at 4° C. for 5 min, and then the supernatant was discarded. Finally, a pre-cooled FACS buffer (PBS buffer containing 0.5% BSA) was added at 200 μL/well to resuspend the cells. Fluorescence signal values were read using an ACEA NovoCyte flow cytometer or a BD FACS CANTOII flow cytometer, and the data were processed and analyzed using FlowJo v10 (FlowJo, LLC) software.
In this example, the binding ability of the antibodies targeting CLDN18.2 to NUGC-4 cells highly expressing human CLDN18.2 (JCRB, JCRB0834) was determined.
Description for human OX40: The antibody binding assay at the cellular level was performed using a CHO-K1 cell line CHO-K1/hu OX40 (GenScript, #M00561) highly expressing human OX40. Briefly, the CHO-K1/hu OX40 cells were digested and resuspended in an F12K complete medium, and the cell density was adjusted to 1×10⁶ cells/mL. […] The cells were incubated at 4° C. for 1 h away from light. Thereafter, the cells in each well were rinsed twice with 100 μL of pre-cooled PBS, and centrifuged at 500 g at 4° C. for 5 min, and then the supernatant was discarded. […] The plate was incubated away from light at 4° C. for 30 min. The cells in each well were rinsed twice with 100 L of pre-cooled PBS, and centrifuged at 500 g at 4° C. for 5 min, and then the supernatant was discarded. Finally, a pre-cooled PBS was added at 200 μL/well to resuspend the cells. Fluorescence signal values were read using a BD FACS CANTOII flow cytometer or an ACEA NovoCyte flow cytometer, and the data were processed and analyzed using FlowJo v10 (FlowJo, LLC) software.

B1: PR001331, anti-PSMA monoclonal antibody 2E8A1B1 hIgG1 (antibody, V domains shown)
VH: QVQLVESGGGVVQPGRSLRLSCSASGFTFINYGMNWVRQAPGKGLEWVAVIWYDGSNKYYADSVRGRFTISRDNSKNTLYLQMNSLRAEDTAVYYCARGPGYGGHSDAFDIWGQGTMVTVSS
VL: DIQMTQSPSSLSASIGDRVTITCRASQSINSYLNWYQQKPGKAPKLLIYTASSLLSGVPSRFSASGSWTDFSLTISSLQPEDFATYYCQQSFSTPYTFGQGTNLEIKR
notes: Parent monoclonal antibody of the PSMA end; hIgG1
As to B1, the binding result with human PSMA is “binds”.

B2: PR002067, anti-OX40 heavy-chain antibody R1026P079E12 (antibody, human IgG1, V domains shown)
VH: EVQLLESGGGLVQPGGSLRLSCAASGFTFSSYAMSWVRQAPGKGLEWVSAISGRGGSTFYADSVRGRFTISRDNSKNTLYLQMNSLRAEDTAMYYCVDGTTGTTDVDYWGQGTLVTVSS
notes: Fully human heavy-chain antibody (HCAb), heavy chain dimer without light chains; also called anti-OX40 HCAb antibody
For B2, the binding result with human OX40 was “binds”.

B3: PR003789 (bispecific antibody, human IgG1, kappa, L234A L235A)
light: DIQMTQSPSTLSASVGDRVTVTCRASQSIYIWLAWYQQKPGKAPNLLIYKASSLETGVPSRFSGSGSGTEFTLTISSLQPDDFATYYCQQYYGSSRTFGQGTKVEIKRTVAAPSVFIFPPSDEQLKSGTASVVCLLNNFYPREAKVQWKVDNALQSGNSQESVTEQDSKDSTYSLSSTLTLSKADYEKHKVYACEVTHQGLSSPVTKSFNRGEC
heavy: EVQLVESGGGLVQPGGSLRLSCAASGFTFSSYWMSWVRQAPGKGLEWVANIKQEGSEKYYVDSVKGRFTISRDNAKNSLYLQMNSLRAEDTAVYYCARDRAVAGAFDIWGQGTMVTVSSASTKGPSVFPLAPSSKSTSGGTAALGCLVKDYFPEPVTVSWNSGALTSGVHTFPAVLQSSGLYSLSSVVTVPSSSLGTQTYICNVNHKPSNTKVDKKVEPKSCDKTHTCPPCPAPEAAGGPSVFLFPPKPKDTLMISRTPEVTCVVVDVSHEDPEVKFNWYVDGVEVHNAKTKPREEQYNSTYRVVSVLTVLHQDWLNGKEYKCKVSNKALGAPIEKTISKAKGQPREPQVYTLPPSREEMTKNQVSLTCLVKGFYPSDIAVEWESNGQPENNYKTTPPVLDSDGSFFLYSKLTVDKSRWQQGNVFSCSVMHEALHNHYTQKSLSLSPGAEPKSSDKTHTPPPPPEVQLLESGGGLVQPGGSLRLSCAASGFTFSSYAMSWVRQAPGKGLEWVSAISGRGGSTFYADSVRGRFTISRDNSKNTLYLQMNSLRAEDTAMYYCVDGTTGTTDVDYWGQGTLVTVSS
notes: Structure 1, IgG-VH; PD-L1 Fab from PR000265, OX40 VH from PR002067; linker H1_15; human IgG1 (AAG); also called PD-L1×OX40 bispecific antibody molecule
For the molecule B3, the binding result with human PD-L1 and in the assay with human OX40 was “binds” each time.

B4: PR003555 (bispecific antibody, human IgG1, kappa, L234A L235A)
light: DIQMTQSPSSLSASIGDRVTITCRASQSINSYLNWYQQKPGKAPKLLIYTASSLLSGVPSRFSASGSWTDFSLTISSLQPEDFATYYCQQSFSTPYTFGQGTNLEIKRTVAAPSVFIFPPSDEQLKSGTASVVCLLNNFYPREAKVQWKVDNALQSGNSQESVTEQDSKDSTYSLSSTLTLSKADYEKHKVYACEVTHQGLSSPVTKSFNRGEC
heavy: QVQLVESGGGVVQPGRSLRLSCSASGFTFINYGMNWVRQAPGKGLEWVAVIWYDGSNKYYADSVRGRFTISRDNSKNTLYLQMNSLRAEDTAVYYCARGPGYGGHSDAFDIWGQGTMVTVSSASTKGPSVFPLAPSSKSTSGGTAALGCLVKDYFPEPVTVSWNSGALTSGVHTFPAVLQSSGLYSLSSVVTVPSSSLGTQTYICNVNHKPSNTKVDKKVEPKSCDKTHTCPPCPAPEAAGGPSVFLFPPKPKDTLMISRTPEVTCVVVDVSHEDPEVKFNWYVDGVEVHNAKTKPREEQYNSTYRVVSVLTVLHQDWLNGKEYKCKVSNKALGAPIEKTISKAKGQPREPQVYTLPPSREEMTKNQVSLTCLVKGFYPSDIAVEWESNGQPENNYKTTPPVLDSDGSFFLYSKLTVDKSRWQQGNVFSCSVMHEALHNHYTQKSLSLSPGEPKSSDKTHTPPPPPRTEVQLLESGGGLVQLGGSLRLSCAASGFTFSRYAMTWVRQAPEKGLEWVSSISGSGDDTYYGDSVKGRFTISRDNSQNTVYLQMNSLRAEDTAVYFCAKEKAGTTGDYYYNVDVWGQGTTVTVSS
notes: Structure 1, IgG-VH; PSMA Fab from PR001331, 4-1BB VH from PR001758; linker H1_15-RT; human IgG1 (AAG); also called PSMA×4-1BB bispecific antibody molecule
Take B4: the binding result in the assay with human 4-1BB and with human PSMA was “binds” each time.

B5: PR003556 (bispecific antibody, human IgG1, kappa, L234A L235A)
light: DIQMTQSPSSLSASIGDRVTITCRASQSINSYLNWYQQKPGKAPKLLIYTASSLLSGVPSRFSASGSWTDFSLTISSLQPEDFATYYCQQSFSTPYTFGQGTNLEIKRTVAAPSVFIFPPSDEQLKSGTASVVCLLNNFYPREAKVQWKVDNALQSGNSQESVTEQDSKDSTYSLSSTLTLSKADYEKHKVYACEVTHQGLSSPVTKSFNRGEC
heavy: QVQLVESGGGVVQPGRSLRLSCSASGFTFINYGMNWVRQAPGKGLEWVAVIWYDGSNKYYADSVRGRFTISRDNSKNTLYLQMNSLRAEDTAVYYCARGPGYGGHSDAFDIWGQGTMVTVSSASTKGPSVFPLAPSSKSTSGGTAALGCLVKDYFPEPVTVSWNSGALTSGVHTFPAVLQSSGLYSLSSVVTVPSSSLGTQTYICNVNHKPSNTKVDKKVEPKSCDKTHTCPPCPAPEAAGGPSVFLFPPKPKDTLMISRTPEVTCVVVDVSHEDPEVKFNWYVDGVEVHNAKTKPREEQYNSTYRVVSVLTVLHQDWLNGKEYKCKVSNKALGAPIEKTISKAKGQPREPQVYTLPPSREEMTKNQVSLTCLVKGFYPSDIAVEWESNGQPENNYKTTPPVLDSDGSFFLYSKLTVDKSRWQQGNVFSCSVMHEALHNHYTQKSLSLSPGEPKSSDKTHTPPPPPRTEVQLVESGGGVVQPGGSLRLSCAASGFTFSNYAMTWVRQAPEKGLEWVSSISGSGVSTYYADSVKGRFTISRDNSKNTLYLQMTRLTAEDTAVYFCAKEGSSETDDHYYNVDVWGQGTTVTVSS
notes: Structure 1, IgG-VH; PSMA Fab from PR001331, 4-1BB VH from PR001760; linker H1_15-RT; human IgG1 (AAG); also called PSMA×4-1BB bispecific antibody molecule
Regarding B5, the binding result in the assay with human 4-1BB and in the assay with human PSMA was “binds” throughout.

B6: PR004284 (bispecific antibody, human IgG1, kappa, L234A L235A)
light: DIQMTQSPSSLSASIGDRVTITCRASQSINSYLNWYQQKPGKAPKLLIYTASSLLSGVPSRFSASGSWTDFSLTISSLQPEDFATYYCQQSFSTPYTFGQGTNLEIKRTVAAPSVFIFPPSDEQLKSGTASVVCLLNNFYPREAKVQWKVDNALQSGNSQESVTEQDSKDSTYSLSSTLTLSKADYEKHKVYACEVTHQGLSSPVTKSFNRGEC
heavy: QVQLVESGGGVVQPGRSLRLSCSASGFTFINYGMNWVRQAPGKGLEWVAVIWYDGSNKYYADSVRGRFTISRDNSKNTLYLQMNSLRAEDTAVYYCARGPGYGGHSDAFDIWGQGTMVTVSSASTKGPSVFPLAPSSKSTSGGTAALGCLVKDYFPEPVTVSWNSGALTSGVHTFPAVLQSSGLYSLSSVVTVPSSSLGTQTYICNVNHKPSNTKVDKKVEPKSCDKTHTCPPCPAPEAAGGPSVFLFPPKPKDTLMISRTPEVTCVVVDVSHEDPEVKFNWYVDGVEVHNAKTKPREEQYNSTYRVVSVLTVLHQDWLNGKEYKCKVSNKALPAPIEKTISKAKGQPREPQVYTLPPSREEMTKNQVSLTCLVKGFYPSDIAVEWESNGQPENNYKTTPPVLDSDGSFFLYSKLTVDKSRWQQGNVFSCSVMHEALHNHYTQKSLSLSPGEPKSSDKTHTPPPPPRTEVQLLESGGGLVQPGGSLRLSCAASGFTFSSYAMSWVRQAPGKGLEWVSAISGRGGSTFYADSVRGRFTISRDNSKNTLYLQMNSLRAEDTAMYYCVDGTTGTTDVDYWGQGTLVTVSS
notes: Structure 1, IgG-VH; PSMA Fab from PR001331, OX40 VH from PR002067; linker H1_15-RT; human IgG1 (LALA); also called PSMA×OX40 bispecific antibody molecule
B6: the binding result with human OX40 and in the assay with human PSMA was “binds” each time.

B7: PR003557 (bispecific antibody, human IgG1, kappa, L234A L235A)
light: DIQMTQSPSSLSASIGDRVTITCRASQSINSYLNWYQQKPGKAPKLLIYTASSLLSGVPSRFSASGSWTDFSLTISSLQPEDFATYYCQQSFSTPYTFGQGTNLEIKRTVAAPSVFIFPPSDEQLKSGTASVVCLLNNFYPREAKVQWKVDNALQSGNSQESVTEQDSKDSTYSLSSTLTLSKADYEKHKVYACEVTHQGLSSPVTKSFNRGEC
heavy: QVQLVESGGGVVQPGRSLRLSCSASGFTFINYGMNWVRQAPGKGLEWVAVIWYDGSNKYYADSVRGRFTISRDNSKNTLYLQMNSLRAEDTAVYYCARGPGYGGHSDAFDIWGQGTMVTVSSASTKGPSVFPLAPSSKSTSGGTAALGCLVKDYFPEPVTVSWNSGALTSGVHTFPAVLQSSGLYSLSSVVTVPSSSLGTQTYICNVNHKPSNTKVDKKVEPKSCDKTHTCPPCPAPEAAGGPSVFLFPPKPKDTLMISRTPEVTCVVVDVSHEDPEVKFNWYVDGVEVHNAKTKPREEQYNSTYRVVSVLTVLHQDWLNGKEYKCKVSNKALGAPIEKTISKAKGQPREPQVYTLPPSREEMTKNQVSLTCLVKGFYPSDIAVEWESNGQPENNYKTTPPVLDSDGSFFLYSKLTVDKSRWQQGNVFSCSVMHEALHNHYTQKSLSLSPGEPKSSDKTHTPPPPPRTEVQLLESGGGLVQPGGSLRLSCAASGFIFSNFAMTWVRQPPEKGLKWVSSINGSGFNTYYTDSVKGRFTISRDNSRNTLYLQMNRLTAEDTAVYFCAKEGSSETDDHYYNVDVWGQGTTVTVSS
notes: Structure 1, IgG-VH; PSMA Fab from PR001331, 4-1BB VH from PR001836; linker H1_15-RT; human IgG (AAG) as printed; also called PSMA×4-1BB bispecific antibody molecule
Turning to B7, the binding result in the assay with human 4-1BB and in the assay with human PSMA was “binds” in each case.

B8: PR002726, anti-CLDN18.2 monoclonal antibody 13E6F4 hIgG1 (antibody, V domains shown)
VH: EVQLLESGGGLVQPGGSLRLSCAASGFTFSSFVMSWVRQAPGKGLEWVSTISGSGRSTYYADSVKGRFTISRDNSKNTLHLQMNSLRAEDTAVYYCAKDAAAAGTKFDYWGQGTLVTVSS
VL: EIVLTQSPATLSLSPGERATLSCRASQSVSSYLAWYQQKPGQAPRLLIYDASNRATGIPARFSGSGSGTDFTLTISSLEPEDFAVYYCQQRSNWPLTFGGGTKVEIKR
notes: Parent monoclonal antibody of the CLDN18.2 end; hIgG1
In the case of B8, the binding result with human CLDN18.2 was “binds”.
